Measured values: patent US7919292B2, “Producing hydrogen by heterologous expression of a type II NAD (P)H dehydrogenase in Chlamydomonas” (Commissariat a l'Energie Atomique, priority 2004, dated 2011)
Like-named read-outs stand apart in the source and are kept apart here.

What was measured:
[1] = target: Agrobacterium tumefaciens NDH-II (Agrobacterium fabrum (Agrobacterium tumefaciens), UniProt Q7CY19); experiment: biochemical
Method: The activity of the Agrobacterium tumefaciens NDH-II was assayed using membranes from an E. coli strain deficient in NDH-I and NDH-II (ndh::tet; nuoB::nptl).
The cells were then collected by centrifugation (15 min, 3200×g) and washed twice with 10 ml of solution containing 200 mM Tris-Cl, pH 8, 2.5 mM EDTA and 0.2 mM PMSF. They were then ruptured by passing them twice through a French press at the pressure of 16 000 psi.
The membrane fraction was recovered by centrifugation (30 min, 48 500×g) and resuspended in 200 μl of analysis buffer (50 mM of phosphate buffer, pH 7.5, and 150 mM NaCl).
The O2 consumption of the E. coli ANN0222 membranes was measured by means of a Clark electrode (DW2/2, Hansatech, King's Lynn, England). After addition of the purified enzyme, this method made it possible to determine its specific activity. […]
In order to measure only the membrane-linked respiratory oxidase activity, catalase (1000 U/ml) and superoxide dismutase (SOD) (500 U/ml) were added to the reaction mixture. […] The inhibition kinetics were determined in the presence of 200 μM of NADH or of 2 mM of NADPH.

[2] = Activity of wild-type and E201Q modified protein with NADH and NADPH; type: biochemical; settings: FIG. 12
Method: The affinity of the modified protein for NADH and NADPH was determined.
The results are illustrated in FIG. 12.

[3] = test system: Chlamydomonas reinhardtii plastoquinones; experiment: Plastoquinone reduction measured by chlorophyll fluorescence on thylakoid membranes; type: biochemical; settings: NDH-II 1.5 μg·ml^−1, 200 μM NADH, anaerobic
Method: The plastoquinone-reducing activity by the Agrobacterium NDH-II was analyzed by measuring chlorophyll fluorescence. In the presence of a weak nonactinic illumination, the measurement of chlorophyll fluorescence provides an indication of the plastoquinone redox state.
(§1) A culture of 200 ml of Chlamydomonas reinhardtii (wild-type 137c) was sampled in the exponential growth phase (approximately 5×10^6 cells·ml^−1), and then centrifuged (5 min, 1000×g). The cells were washed in 35 mM HEPES-NaOH buffer (pH 7.2), resuspended in 10 ml of lysis buffer (50 mM tricine-NaOH, pH 8, 10 mM NaCl, 5 mM MgCl2, 1% BSA, 1 mM benzamidine and 1 mM PMSF) and stored in the cold and in the dark for the following steps.
The suspension was passed through a French press twice, at 2000 psi. […]
The photosystem II fluorescence was measured using a modulated light fluorimeter (PAM 101-103, Walz, Effeltrich, Germany).
A nonactinic modulated light (650 nm, 1.6 kHz) was used to determine the level of chlorophyll fluorescence F0. The maximum level of the chlorophyll fluorescence Fm was measured under a saturating flash of 1 second (approximately 1000 μmol photons·m^−2·s^−1). […]

[4] = test system: E. coli strain ANN.0222; experiment: Complementation-growth test of NDH-deficient E. coli; type: cell-based; settings: M9 + mannitol
Method: The functionality of the Agtundh2 protein in vivo in a heterologous host was tested by determining its capacity to restore the growth of a mutant E. coli strain, ANN.0222, deficient in NDH-1 and in NDH-2. This strain grows normally on LB medium, but is incapable of growing on minimum medium M9 supplemented with mannitol as the sole carbon source.
The E. coli strain ANN.0222 was chemically transformed (CaCl2) with the plasmid pSDN2Ag6H. The transformants were selected on LB agar medium (supplemented with 1% tryptone, 0.5% of yeast extract and 0.5% NaCl, pH 7) containing ampicillin (100 μg/ml). The transformants and the strain of origin were cultured until the middle of the exponential phase at 37° C. in liquid LB medium containing ampicillin (100 μg/ml). The cells were rinsed with sterile M9 medium, supplemented with mannitol as the sole carbon source (1× M9 salts, 2×10^−3 M MgSO4, 10^−4 M CaCl2, 0.4% mannitol). The cells were then diluted in M9 medium/mannitol and inoculated on a solid M9/mannitol/agar medium containing ampicillin and various concentrations of IPTG. The Petri dishes were incubated at 37° C. for 2 days. As a control, the same cells were inoculated in parallel on dishes containing LB agar medium containing ampicillin and various concentrations of IPTG, and then incubated at 37° C. overnight. […]

[5] = test system: Chlamydomonas thylakoids; experiment: Photo-induced DNP-INT-sensitive oxygen uptake of Chlamydomonas thylakoids (electron transport from NAD(P)H to the photosynthetic chain); type: biochemical, Chlamydomonas reinhardtii
Method: as §1
The suspension was passed through a French press twice, at 2000 psi. The lysate was first centrifuged (5 min, 4° C., 500×g) in order to remove the unlysed cells, and the thylakoid membranes were then pelleted at 10 000×g for 10 min and resuspended in 250 to 500 μl of analysis buffer (50 mM tricine-NaOH, pH 7.2, 10 mM NaCl and 5 mM MgCl2).
In order to quantify this effect of the Agrobacterium NDH-II on the electron flow from NAD(P)H to the acceptors of PSI, oxygen consumption measurements were carried out in the presence of methyl viologen (an acceptor of PSI), of DCMU (an inhibitor of PSII) and of an NADH (200 μM) or NADPH (2 mM) electron donor.
The Chlamydomonas thylakoids (50 μl, corresponding to 85 μg·ml^−1 of chlorophyll) are placed in a Clark electrode containing 900 μl of analysis buffer (50 mM tricine-NaOH, pH 7.2, 10 mM NaCl and 5 mM MgCl2, 25 μM DCMU, 50 μM methyl viologen, SOD (500 U·ml^−1), catalase (1000 U·ml^−1), 4 μM of myxothiazol and 800 μM of SHAM (salicylhydroxamic acid). The latter two compounds are added in order to inhibit respiratory O2 uptake.
Under these conditions, the fraction of the photo-induced oxygen uptake sensitive to DNP-INT (2-iodo-6-isopropyl-3-methyl-2′,4,4′-trinitrodiphenyl ether; 10 μM), an inhibitor of cytochrome b6f, is proportional to the electron transport between the NAD(P)H and the photosynthetic chain.

[6] = test system: E. coli ANN0222 membranes; experiment: Enzymatic activity of purified NDH-II on bacterial membranes (O2 consumption, Clark electrode); type: biochemical; settings: 25° C.; for Km: physiological pH
Method: In the next experiment, the capacity of this enzyme to transport electrons to the respiratory chain of E. coli was determined.

[7] = test system: E. coli ANN0222 membranes; experiment: Membrane NADH dehydrogenase activity of E. coli ANN0222 expressing Agtundh2 (O2 uptake); type: biochemical
Method: Two batches of E. coli ANN.0222 membrane fractions were prepared, from a culture of the control strain on LB medium and from a culture of the strain having incorporated the plasmid pSDN2Ag6H, cultured on LB medium in the presence of 0.1 mM IPTG. The cultures were carried out until an optical density of 1 at 600 nm was obtained. […] The cells were then ruptured by passing them through a French press twice, at 16 000 psi. The membrane fraction, collected by centrifugation (30 min, 4° C., 48,500×g), was taken up in 200 μl of buffer B (50 mM phosphate buffer, pH 7.5 and 150 mM NaCl).
The results are illustrated by FIG. 10B, which represents the O2 uptake, in the presence of NADH, of E. coli ANN0222 membranes prepared from the reference strain (control) and from the strain expressing Agtundh2.
To determine the catalytic efficiency of Agtundh2 expressed in E. coli, the specific activity was estimated from the amounts determined by Western blotting.
On the basis of the relative intensities of the signals obtained for the purified Agtundh2 protein and for the membrane fractions, the amount of Agtundh2 protein in the experiments illustrated by FIG. 10B was estimated at 0.6 μg protein. The maximum O2 uptakes under these conditions are thus estimated at 13.2/0.6=22 nmol O2 min^−1·μg^−1 protein, i.e. 44 nmol NADH min^−1·μg^−1 protein.

Molecule | IC50 [1] [µM] | activity with 200 μM NADH compared with 200 μM NADPH [2] | increase in chlorophyll fluorescence (plastoquinone reduction) versus natural enzyme alone [3] | growth on minimal medium ([4]; absence of IPTG) | growth on minimal medium ([4]; induction with 0.1 mM IPTG) | electron transport, NADH as donor ([5]; 1.5 μg purified NDH-II added, NADH 200 μM, without enzyme 21) | electron transport, NADPH as donor ([5]; 1.5 μg purified NDH-II added, NADPH 2 mM, without enzyme 20) | stimulation factor of electron transport, NADH ([5]; NADH to thylakoid plastoquinones) | stimulation factor of electron transport, NADPH ([5]; NADPH to thylakoid plastoquinones) | Km ([6]; read-out: Km for NADH) [µM] | Km ([6]; read-out: Km for NADPH) [µM] | maximum activity (Vmax) ([6]; purified enzyme plus E. coli ANN0222 membranes, pH 7.5) | specific activity as NADH ([7]; Agtundh2 expressed in E. coli membranes) | maximum O2 uptake (specific activity) ([7]; Agtundh2 expressed in E. coli membranes, protein amount estimated by Western blotting at 0.6 μg) | O2 uptake of membranes on addition of NADH ([7]; strain transformed with pSDN2Ag6H, 0.1 mM IPTG, control strain none detected)
c1ccc2c(c1)[I+]c1ccccc1-2 [DPI, diphenylene iodonium] | 10 |  |  |  |  |  |  |  |  |  |  |  |  |  | 
Agrobacterium NDH-II: type II NAD(P)H dehydrogenase from Agrobacterium tumefaciens, SEQ ID NO: 2, purified with 6His tag (protein, listed as Agrobacterium tumefaciens, 6His tag) MQEHHVVVVGGGFGGLQLVHGLEGAPVRITLIDRRNHHLFQPLLYQVATTALATSEIAWPIRHLYRDRKEVTTLLAEVTGVDRAARTVQLNSGQVIGFDTLVLATGARHAYFGHDEWERSAPGLKTLEDATTIRRRLLLAFERAELATSEEERQALLTFVIIGAGPTGVEMAGMIAELAHRALPAEFRNVDTRKTRVLLVEAGPRVLPVFTEDLSTYAKEALEKLGVEVLLGTPVTACTDEGVTVGETYYPCRTVVWAAGVQASPAAKWLNAAGDRAGRVIVGPQLHLEDDADIFVIGDTAAVNQENGKPVPGIAPAAKQQGAYVAKVIKARLEGKPIPAPFRYSHQGNLATIGKRAAVIDFGRFKLKGVLAWWIWGLAHIYFLIGTRSRLAVAWSWLWIYLSGQHSARLITQKETLKDEA |  | clearly greater activity with 200 μM NADH | more rapid and more intense | partial complementation | restored | 67 nmol·min^−1·mg^−1 chlorophyll | 45 nmol·min^−1·mg^−1 chlorophyll | approximately 3 | approximately 2 | 10 | 50 | 5 μmol O2·min^−1·mg^−1 protein | 44 nmol NADH min^−1·μg^−1 protein | 22 nmol O2 min^−1·μg^−1 protein | considerable O2 uptake
